The DeepSol protein solubility set

Assay: soluble on expression in E. coli; label from the status in PepcDB or PDB records

Sequence	soluble on expression in E. coli
MPTPKAFALLGPTAGGKTALALKIAETLPVEIISLDSALVYRDMDIGTAKPSASERAFVPHHLIDIIPPTESYSAARFVEDCTRLVGEISSRGRFALIVGGTMMYFRALTQGLNDLPEADACLRADLDEQKQMYGLDFLYRTLQKVDPETACRLKPNDSQRIGRALEVYYLTGKPMSTHLGSLTSHTLPFDLHTAALIPENRARLHENIALRFHLMLEQGFIGEVENLRRRYPGLTAYSPAIRCVGYRQAWKYLDGKTDFPAFVEKGIAATRQLAKRQLTWLRKTPLDCVADPFSDCTSCTRLIEAAKRFFGALEHHHHHH	soluble
MQNNSYGYAVSVRVGGKEHRHWERYDIDSDFLIPADSFDFVIGRLGPEAAIPDLSGESCEVVIDGQIVMTGIIGSQRHGKSKGSRELSLSGRDLAGFLVDCSAPQLNVKGMTVLDAAKKLAAPWPQIKAVVLKAENNPALGKIDIEPGETVWQALTHIANSVGLHPWLEPDGTLVVGGADYSSPPVATLCWSRTDSRCNIERMDIEWDTDNRFSEVTFLAQSHGRSGDSAKHDLKWVYKDPTMTLHRPKTVVVSDADNLAALQKQAKKQLADWRLEGFTLTITVGGHKTRDGVLWQPGLRVHVIDDEHGIDAVFFLMGRRFMLSRMDGTQTELRLKEDGIWTPDAYPKKAEAARKRKGKRKGVSHKGKKGGKKQAETAVFE	soluble
MEHFHGNRWDQLRAVEADILCPPPADPFQIFPSGWTRASELSEKGWRELLDRRRSQSPPPREPSPDVRRAIRRTPPPRVNRVAPIRLPERRPLRQLNANDARRPAQDAANRINQENMRAGNIDNGQPRRRALSPTQLPGVRAIPKDFNRFFRGLLTPGEFFAKSQTRYLGPFDEMPTEDTLPAADEYIILQRMGRLPDSGKSIFRQVGNLST	not soluble
MSLPVFSFEEPTGPHRVGTKLYHWVDHQRNEPYSKNPNDRRELMVQIWYPAAEKSKGDPEPYIRNINELSKGLEKTLSIPAFAFSHMELVKSHSFMDLQLSDSENHYPILLFSHGFNGFRNQNTFQVEELASQGYIVLSIDHTFDAAATVFPGGRTAYVQPINLTDEGDSHIKLWEEDVSFVLNQIEKLNENDETGFFTGRLDTSRIGMFGHSYGGATAAQILAKDSRVKAAINMDGTLYGEILPESGIGKPFLLMNAEEPDEADPFEVRERYGRGLAGGGMSMVIPHTDHTSFTDLHLFSPLLQSPGENPKEVHRIINEFSLAFFDQYVKQKDDGSTLKRLITQYPEVNFKINREGHHHHHH	soluble
MARPQSKKKQTQIVRRSRPRGRLVPPGRLIAGRDFPEFLQQAVLLSGSLRQAARKLRVSYSTLRGWLGRRCEEPPEAERDLLAEHAAAIRAELDAASEHLATVRGQLDVLEHGE	not soluble
MEEIILVFPKEELEVRAMEFKKEFLDCGERIINGSFKLDYVDDYAEWLKIIRNNLKKETVNPKWVVSTTFFAVRKSDNKIIGIVNLRHYLNDFYKNSGHIGYSVRPSERRKGYASEILRQILEYAREKGLTEVCVVCKKENEASRKTILKNGGILSRTFKDEGEEHEAFYINTKKH	not soluble
MIMEHEYRLEVRGYELDSFGHVNNAVYLNYLEAARWDLCSKLNLTDYNESNELFIVVIETNIKYIRELKLFDKVLIKTELTYEDDYLIFKHNIYNEVTKRKASVAKSKMVLVSKQRIIYEIPQFIKDKLDICAYGLEHHHHHH	not soluble
HTGTVDIVADKTLYQPGETAKMLITFPEPIDEALLTLERDRVEQQSLLSHPANWLTLQRLNDTQYEARVPVSNSFAPNITFSVLYTRNGQYSFQNAGIKVAVPQLDIRVKTDKTHYQPGELVNVELTSSLKGKPVSAQLTVGVVDEMIYALQPE	not soluble
MFCTSEAAVDMDSGRGDIRRLKDGEILKYTSGIFSSKWKKMYAVLFSDSRLVWFENRGDRKPKGSVLLKDVIPYICVGLMTDRMPVKRPNVPEGNSVHHLVGIGMNPKADPCHWILFSSDSDIESWFTEITKTLPKPANPPPNAPQQGPGAQPPQQQNNGGYVPPTVYPSAPPPVQPGYNPRPASGQSYPSGPQVPPAYGQYPQPGYPQPAGVPTSSHTTVIVRDGGYGGGGYGGYGGGGGGFGSTGLGFGSGILAGSLLGYGLGSMWGGHHSYGGWGGGYGGGGYGMAGGYYSDNDTTVTNNYYNYGDNDNNGGNNHSSSSNAITDAPGNAGDQSQQQSDNNYGNANQDSYDQGNDYGNDYGNAGYDSGDFGGGDYGGGGYDSGDFGGGDFGGGDFGGGDFGGGDY	not soluble
MEVPKNPYESTWTGYDFYYEKEPKKVPPSAGSGKMPAFQSIASISTDRESPEDPGNSGYLASGAESGPKKTTSKPATTPTPEPTTTPVEEEKVKVSPSSSTKDPSKLHKTTKTPVTITNIISTTTAPPAPSRAPENDPESGSDQSESTDNLDLLYGGGSSATATGEDKKARHSTTNNPNFCTDPPKLHDPPPPHPSAPQNLLTQLIQKKKDAPNKGSSEKSSKWSDDHASGYPEGSAPSAEPSENQYEQDGSIPSSNDYKELTDVPGTKPSSSASRGSNMAGNPTAPLTTTQHTFAPNSTETSRSSTSRGKAPGTEPKSEARYSSQNPYSDNSSTQKPEYESGYPAVSGANSRAQIPNITDYTKPSAVSIEYASSSKERSDPPFSTPLTSNSQHVLTQPRPRDYEDGPQETTRTKASGTKSPNSLQAPQQTAAHLMKNARAPGPEPSLHSTTTHHVQTPIITIAPKFSEPSPYAENIMLTPKQAPGTEPRSNSQNPQTDRLASQSGYESGGPGRPQNVSIRHRENPKGSDAISRTAITPSKIDYFAPSSPTGPIGYERQVPSFKEGPDHQYTKYSTLNSPPAPSPQESSTITHHVSTSPDFLEPSSESSVLLPKQAPGTNPSTSNSPPGYSELIGPSGPESQGYEPMGNNGPSIFEGPGTESGYSEPKALSTASQKTKPDDKPYEIPRSIEPSNSKPYPSDSSWSDHDNAPGSEPSYIPDVLDYGARANNHAGKMMNMSHATSPSTGSPSNSNNAISARDPYDHFGTITAPSDIPRANSNFEEYPDDGGYDGTNDVAIVPLRTQHGTNPSTITTTNTQVRAQISEIDRIAESFENSAREPVEYEQRITSESSKGITAVTGKDFMKKLGRKSPTCCSCCDEKQSVSRNIETQADPLHVQHAVDPSRQLVESEPVQNFVPLQNTVGGNAYIQPQPVAQQQTIYQQPFQQYQPQYPQSYQQPSCGCQPQPQNCCAPPAPCCLPTIPCCPPIPCCPQPKICCQPAPVCLPPPTCCSINFKLPTIPICGRACPSCPCRRRMHKSRRLKRHSINSNCHQCSSAGEPWRSVLHHREKRAAPGCTSGFSTMSQNSCGTCGASNLRSPRVKRMGCLPCLGRKKRDTDENSHIRVKRMGCLPCLGRKKRSTLSQSGCSQCNSMGHLFNRYKRSLFGGCSPCAPQQPCGCGRKKRSVTMKLVKRAPMQCDSTCCDFSRCPYRQKKEALVPFM	not soluble
MLRRQARERREYLYRKAQELQDSQLQQKRQIIKQALAQGKPLPKELAEDESLQKDFRYDQSLKESEEADDLQVDDEYAATSGIMDPRIIVTTSRDPSTRLSQFAKEIKLLFPNAVRLNRGNYVMPNLVDACKKSGTTDLVVLHEHRGVPTSLTISHFPHGPTAQFSLHNVVMRHDIINAGNQSEVNPHLIFDNFTTALGKRVVCILKHLFNAGPKKDSERVITFANRGDFISVRQHVYVRTREGVEIAEVGPRFEMRLFELRLGTLENKDADVEWQLRRFIRTANKKDYL	soluble
MDNGWPNLQTLALFVAIVEEGSLGAGARKVGMAQPNASRAIAELEADMKAELLVRHPRGSHPTAAGLALVEHSRDLLQSVQEFTEWVTEGRTEQPLKLHVGASMTIAEALLPAWVADMRTRFPACRVDVSVMNSSQVIEAVQKGHLQLGFIETPHVPVRLHARVVQEDKLIVVISPNHEWANRTGRISLRELSETPLIVREVGSGTREALQELLADYDMAEPIQVLNSNAAVRVVVEAGAGPAVLGELALRDHLALGRLLSVPFEGSGVTRPLTAVWSGPRRLPILAGELVSIASNHI	not soluble
MSLIDPKRARLPIIRQCTLLRLNRSGVYYRSVPQSEANLELMRLIDAQFLETPYYGSRQMTWHLRRLGHEVGRKRVRRLMAIMGLRAIYQKPRTSVPHPEHRKYPYLLRDLVIDRPNQVWCSDITYIPMKRGFLYLVAIMDWFTRKVLSWRLSNTMDAEFCIEALRDALMRYGPPEIFNTDQGSQFTTPRFTGILEERQIRISMDGRGRWLDNVFIERLWRSLKYECVYLHAFETESELRVGLTKWITHYNGQRPHTALAGRTPDEAYHGVPTPSGPGLTPDQMANSNAVRMAAEGHHHHHH	soluble
MANSHVNTLNPGDPFRDWLVEEVVANRIRDKKCCVNVFKYNSSHTVCRYQFKGEHFSVMAKFFAEPTGKLKAYNPYKGMMNEYRNLKKAASIINVAKPLAVRKDFNCVLVTEHIPGKSLGWYLKREEDLYGRLSAVAHMLRNLHDNTKSSYNKENEFRNFHDVLDHLKLDYGTRETFNKLLGEWWYSSLLDRDHGCMVHRDVTPSNYIFCKEKPYAIDFESSWFEAHPIRDLGVLTAELKNEFELHKGGGWKAEPYIGNFLWEYSRGEKDFYSITGILPFFMSIGLLRSARLHQGDYRNYLINEARECLGAIYRGNLEHHHHHH	not soluble
MGSDKIHHHHHHMTDQTAARACGIDFGTSNSTVGWLRPGHDTLLQLEDGKITLPSVVFFNYEEDHSRFGRAALAEYIDGFEGRLMRSLKSLLGSSLIDSQTEVQGKALPFRHLLKLFIQELKLRAEGAAGREFEQVVLGRPVYFVDDNPQADKLAQDTLADIARQVGFKEISFQLEPIAAAFDYESNIQKEELVLIVDIGGGTSDFTLIRLSPERRSHAERRDDILATGGVHIGGTDFDRQLSLHGVMPLFGFKTRLRNNAEMPSSQYFNLATWHTINFAYTRKAWMDLQDVHRDAAEPEKLDRLFKLIQERAGHWLAMEVEAAKIALSDRDSHRLALDAIERGLHCDLSRADFETSISALLDRVGGTVGKLLADSGLKAQDVDTVFFTGGSSGVPALRDGIRALLPNARHVEGNLFGSIGSGLAIEAKKRYG	not soluble
MGSDKIHHHHHHMDMTFKLQVFEGPLDLLLYLIEKNKVNIYDIPIVEITAQYMEYVNQMKKDNLDTLSEFLVMAATLLDIKSKMLLPKKEEEEQEQEDPRAELVQQLLEYKMYKCMANELKDRQLDAGKVWYKKKDIPDEVLAYEEPVNLEELVGDIRLSDLNRIFQSIMKRQEEKIDKVRSKFGKIEKEEVSLEEKMEYLTDYAASHKHFSFRGMLTASSSKVEVIVTFLAILELMKTGKLTIVQEHIFDDIRIESRIAA	not soluble
MGHHHHHHSHMSGRSVPHAHPATAEYEFANPSRLGEQRFGEGLLPEEILTPTLYHGYYVRPRAAPAGEGSRAGASELRLSEGKFQAFLDVSHFTPDEVTVRTVDNLLEVSARHPQRLDRHGFVSREFCRTYVLPADVDPWRVRAALSHDGILNLEAPRGGRHLDTEVNEVYISLLPAPPDPEEEEEAAIVEP	not soluble
MSQFEKQKEQGNSLFKQGLYREAVHCYDQLITAQPQNPVGYSNKAMALIKLGEYTQAIQMCQQGLRYTSTAEHVAIRSKLQYRLELAQGAVGSVQIPVVEVDELPEGYDRS	not soluble
MATLLEQLSTMTVVVADTGDLDAIRKFTPRDATTNPSLILAAAQIPAYQSLIDEALHSSRQLLGNSAAVEEVVHEALDEICVIFGKEILKIVPGRVSTEVDARLSFNTEATIAKAHKLIGLYNDAGITNDRVLIKIASTWEGIKAAEVLEKDGIHCNLTLLFGFSQAVACAEAGVTLISPFVGRILDWYKASTGRDSYAGPEDPGVISVTKIFNYFKTYDYKTEIMGASFRNLDEIIELAGCDLLTISPKLLDQLGSTEAPLKRKLDAVNPVAAESQIHVDKESFESMMRADRMAFEKLDEGIRGFSKAIETLEAQLAHRLAVLEGGAAFCHVVQEIFMLNDLDGDGCITREEWLGSDAVFDALDHDHDGRLLQEDVRSGLGAALALTTA	not soluble
MGHHHHHHSHNSARADVYPDGFKGHMLTKSEKNQLLAIASSLFVAFQLRAQHFQGNSRMPVIKPDIANWELSVKLHDKVHTVVASNNGSVFLVEVDGSKLNVTSTWNLFALIVCQR	not soluble
